From patent US20250147051A1, “METHOD FOR DETECTING A TAU PROTEIN IN A SALIVA SAMPLE” (GTINVENT LIMITED, priority 2022, published 2025)
“Also recorded” adds a separate entry of the source.

What was measured:
[1] = test system: plasma tau; experiment: 3-step Simoa assays of human plasma (AD/MCI vs healthy control / CU); conditions: label = capture antibody; CA4 with BT2 detector; BT2 or HT7 with S1D12 or S1G2 detectors
Method: Human plasma samples were sourced from the commercial supplier Logical Biological Ltd. Healthy control (HC, n=12) and samples from individuals with a diagnosis of AD or mild cognitive impairment (AD/MCI, n=42) were aliquoted into low bind microfuge tubes and stored at −80° C.
The Simoa® experiments used for plasma screening utilised a 3-step protocol optimised for use with plasma samples. A standard curve (540 pg/ml−0.7 pg/ml) was created by spiking recombinant hTau40 into Tau 2.0 diluent and triple diluting. Plasma samples were diluted 1:100 and added in duplicate to the Simoa® plate followed by the addition of respective capture beads. Different antibody pairings used for plasma screening is explained in Table 28. In general, the capture antibody coated beads are mixed with diluted plasma samples, added to the plates and incubated for 30 min at 30° C. with shaking. Following the incubation, the plates were washed using the Simoa® plate washer before the addition of 0.2 μg/ml biotinylated detector antibody which was left to incubate as before for 10 min. The plates were then washed again before the addition of SBG and a final 10 min incubation. After the final incubation and wash steps the plates were transferred to the Simoa® reader and plasma tau concentrations generated against a 4-parameter fit curve. […]

[2] = target: dGA (Homo sapiens, UniProt P10636); experiment: Biacore X100 SPR binding kinetics of anti-tau scAbs (scAb captured via HuCk), analyte dGA; conditions: lead scAbs
Chain of dGA (P10636 614-707): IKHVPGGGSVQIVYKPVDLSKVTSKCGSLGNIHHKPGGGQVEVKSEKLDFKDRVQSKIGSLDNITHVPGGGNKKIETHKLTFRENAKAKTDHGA
Method: (§1) Surface plasmon resonance (SPR) is widely regarded as the gold standard for real time measurement of protein-protein interactions such as antibody binding. All SPR experiments were carried out using a Biacore X100 machine and HBS EP+ running buffer (GE Healthcare). A ‘capture’ method was followed for affinity measurements, where an anti-human constant kappa chain (HuCk) antibody was conjugated to the surface of a CM5 sensor chip using an amine coupling kit and scAb molecules were immobilised via their HuCk domain. Amine coupling is a very common approach for immobilising the ligand to the chip surface. The chip surface has a dextran matrix derivatised with carboxyl groups, which after activation with N-hydroxysuccinimide (NHS) and 1-ethyl-3-(3-dimethylaminopropyl) carbodiimide (EDC), form reactive succinimide esters which allows the covalent capturing of the ligand via any available primary amine groups (e.g. Lysine) on the ligand (in this case anti-HuCk antibody). The capture antibody was diluted 1/100 in 10 mM Sodium acetate buffer pH 5.0 and passed over the activated chip surface for a period of at least 420 s. Final ligand immobilisation levels over 12,000 RU were deemed to be satisfactory.
(§2) Following immobilisation, the level of each scAb to be captured was identified using the standard SPR equation with a theoretical RMax of 100 RU. Analyte MW refers to the molecular weight of hT40 or dGA/dGAE molecules, while ligand MW refers to the molecular weight of the scAbs tested. RLis the desired capture level and S refers to the stoichiometric ratio:
(§3) The scAb to be tested was added only to flow cell 2 so that flow cell 1 could act as a control to subtract any interaction with the analyte and the chip surface. Both single and multi-cycle runs were utilised using wizards developed in the Biacore X100 control software which are both accepted methods of kinetic analysis (Karlsson, R., et al. Analyzing a kinetic titration series using affinity biosensors (2006) Analytical Biochemistry 349:136-47). The multi-cycle protocol was as follows-Three start-up cycles composed of an initial capture, to the desired level, of the scAb to be tested was performed followed by a 30 s injection of glycine buffer pH 2.0 after each cycle to regenerate the chip surface. The regeneration step removed any captured scAb whilst leaving the capture antibody intact and able to repeat the capture for the next cycle. Following three start-up cycles increasing concentrations (0.15625 nM-100 nM) of the target to be tested were added to the chip surface after the desired scAb capture. The target was added for a 120 s association period and 420 s dissociation period followed by another regeneration, 30 s injection of glycine buffer pH 2.0 in between each cycle.
The single cycle kinetics protocol was similar and utilised the same level of scAb capture. Three start-up cycles were used followed by 5 increasing concentrations of the analyte (6.25 nM-100 nM) for an association period of 120 s followed by a dissociation period of 420 s for each concentration. In single cycle kinetics the regeneration step was performed only after the final analyte concentration was added. Binding responses were analysed in Biacore X100 evaluation software and data fitted to a 1:1 binding model to obtain kinetic and affinity characterisation.

[3] = target: T1, dGAE aggregates (Homo sapiens, UniProt P10636); experiment: Sandwich ELISA LoD for SDS Triton X-100 treated dGAE aggregates; type: binding; conditions: label = detection scAb
T1 construct: host or cells: aggregated in house: 100 μM dGAE with DTT, 700 rpm, 37 °C, 24 h
T1 sequence (P10636 614-708): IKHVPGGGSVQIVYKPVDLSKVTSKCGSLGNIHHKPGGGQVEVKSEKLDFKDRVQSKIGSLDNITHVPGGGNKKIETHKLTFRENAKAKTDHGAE
Method: For aggregation, 1000 μL 100 μM dGAE+10 μL 10 mM DTT was added to a ‘LoBind’ microfuge tubes and agitated at 700 RPM/37° C. for 24 hours. Resulting sample centrifuged at 17,000×g/4° C. for 60 min and supernatant discarded to remove left over monomer. Pellet resuspended in half the original volume for future experiments and hereafter referred to as ‘aggregates’. 1 μl of aggregates was added to 1 ml of PBS and SDS was added to a final concentration of 1% (w/v). This was left to incubate on lab bench for 1 h with gentle agitation every 15 minutes. In order to neutralise the SDS effect on ELISA, Triton X-100 added to a final concentration of 3% (v/v) and mixed gently by pipetting to prevent any bubble formation. 200 μl added of this mix was to the first well of an ELISA plate coated with 1 μg/ml S1D12 mAb and blocked with 2% MPBS. Similarly aggregates treated with only SDS or Triton X-100, untreated aggregates, dGAE monomers treated with only SDS or SDS+Titon X-100 were also added to designated wells as controls. All samples were then double diluted across the plate in final volumes of 100 μl. The final column was left with no protein to act as a blank. This was allowed to stand at room temperature for 1 hour followed by the addition of detection scAb-S1G2 at 10 μg/ml. Anti-HuCk HRP labelled secondary antibody was added as described previously and ELISA data generated was represented using the graph below. In addition, limits of detection (LoD) of various core binding antibody pairing for SDS Triton X-100 treated dGAE aggregates were calculated using the above describe ELISA method and substituting capture mAbs and detection scAbs as shown in Table 30.

[4] = test system: tau protein; experiment: Capture ELISA of transgenic mouse brain lysates; conditions: S1D12 mAb capture; label = detection scAb; WT, L1, L66+/- and L66+/+
Method: Mouse brain lysates were prepared from wildtype, Line 1, Line 66+/+ and Line 66+/− (Melis et al., 2015, all surplus from Charles River, part of study R0144). All animals were female, 7-8 months old except Line 66+/+ which were 5 months old. […] The L1 cDNA construct (FIG. 23) contains human tau cDNA coding for amino acid residues 296-390 with a signal sequence and related sequences in a murine Thy-1 expression cassette. For brain lysate preparation, half brains were sectioned into four and the individual sections were homogenised in 400 μl of ice cold RIPA buffer (Cell signalling Technology) containing protease and phosphatase inhibitors. Total protein concentrations for individual samples were established by BCA-assay and each sample was subsequently diluted to 1 mg/ml for future experiments.
For capture ELISA, 100 μL S1D12 capture mAb was used to coat a nunc 96 well Maxisorp plate at 1 μg/ml and incubated for 1 hour at 37° C. Plate was washed as previously and then blocked for 1 hour at 37° C. in 2% MPBS. Brain homogenate samples (50 ng total protein) from each mouse type were added to the first wells and double diluted across the plate in PBS. These samples were left to incubate at RT for 1 hour. Various detection scAbs encompassing epitopes of interest were then added to the plate at 1 μg/ml and incubated for 1 h at RT. Secondary antibody used was anti-HuCk HRP and the assays were developed as described previously. Using S1D12 mAb capture and two separate scAb detectors, S-1G2 (FIG. 24A) and C-B7 (FIG. 24B), it was possible to differentiate between L1 and L66 samples and the wild type.

[5] = test system: tau; experiment: Western blot of mouse brain homogenates (WT, L66+/+, L1+/+); conditions: 20 μg brain homogenate protein, 5-month-old WT, L1+/+ mice
Method: Protein equivalent to 20 μg from each brain extract was separated using 4-20% bis-tris gels and run in 1×MES buffer. […] A clear band is visible in the lanes containing L66^+/+ samples, but no other bands are detectable (WT or L1^+/+). […] Once again, a band having relative mobility of 65 kDa is visible in the L66 sample with no other reactive bands present.
This band most likely corresponds to endogenous mouse tau which is of a similar size. In the L66^+/+ samples, a second band running at approximately 68 kDa is also detected. The presence of numerous other bands indicates proteolytic truncation of tau within brain homogenates.

[6] = target: dGAE (Homo sapiens, UniProt P10636); experiment: Biacore X100 SPR binding kinetics of anti-tau scAbs (scAb captured via HuCk), analyte dGAE; conditions: lead scAbs
Chain of dGAE (P10636 614-708): as above
Method: as §1, §2
as §3, with “Following three start-up cycles increasing concentrations (0.15625 nM-100 nM) of the target to be tested were added to the chip surface after the desired scAb capture. The target was added for a 120 s association period and 420 s dissociation period followed by another regeneration, 30 s injection of glycine buffer pH 2.0 in between each cycle.” left out
The single cycle kinetics protocol was similar and utilised the same level of scAb capture. […] Binding responses were analysed in Biacore X100 evaluation software and data fitted to a 1:1 binding model to obtain kinetic and affinity characterisation.

B1: CA4: anti-tau clone, SEQ ID NO: 368 (protein)
chain: QVQLQESGPSLVKPSQTLSLTCTVSGFSLTSYSVYWVRQAPGQALEWISIMYASGRVDYNPALKSRLSITRDTSKSQFSLSLSSVTTEDTAVYYCTRGIENWGPGLLVTVSSEGKSSGASGESKVDDDIQVTQSPSSLSASLTERVSITCRTSQSVNNYLSWYQQKPGQAPKLLIYYATRLYTDVPSRFSGSGSGTDYTLTITSLEADDTATYYCLQYDSTPLAFGGGTNVEIK
modifications: CA4 amino acid sequence
detection of tau in human plasma [1]: high levels of Core/Proline tau is detected in cognitively unimpaired (CU) samples only

B2: S1G2: anti-tau binding molecule defined by its CDRs; scAb sequence SEQ ID NO: 81 (protein)
scFv: QVQLQESGPSLVKPSQTLSLTCTVSGFSLTSNSVGWVRQAPGKAPEWVAGIDTDGEEGYNPALNSRLSITRDTSKSQVSLSLSSVTSEDTAVYYCGRSYRADGLAYGYVQAIDYWGPGLLVTVSSEGKSSGASGESKVDDQAVVTQPSSVSGSLGQRVSITCSGSFIGISSVGWFQQLPGSGLRTIIVASDGRPSGVPDRFSMSKSGNTATLTISSLQAEDEADYFCGSSDRTPYTGVFGSGTRLTVLG
modifications: S1G2 amino acid sequence
ka ([2]; Table 24): 783000 M⁻¹ s⁻¹ | dissociation rate constant (kd) ([2]; Table 24, dissociation rate): 0.0003499 s⁻¹ | LoD, 423 mAb capture, +SDS Triton dGAE agg. [3]: 30 ng/mL | LoD, S1D12 mAb capture, +SDS Triton dGAE agg. [3]: approximately 2 ng/ml | LoD, direct immobilisation of dGAE aggregates, +SDS Triton dGAE agg. [3]: 16 ng/mL | detection of tau in mouse brain homogenate [4]: tau protein was detected in 50 μg of total brain protein in all four different sample types | Western blot reactivity [5]: A band is detected in each sample (WT, L66^+/+ and L1^+/+); also recorded: able to detect the pathologic 10-kDa tau fragment

B3: E1E8: anti-tau clone, SEQ ID NO: 250 (protein)
scFv: QVQLQESGPSLVKPSQTLSLTCTVSGFSLTDWGVAWVRQAPGKALEWLGTMRSGGTTDDNPALKSRLSITRDTSKSQVSLSLSSVTTEDMAMYYCARGYLSGVHYAWGRGLLVTVSSEGKSSGASGESKVDDQAVLTQPSSVSGSLGQSVSITCSGSSSNVGDGRYVSWFQQVPGSAPKLLIYDTTSRASGVPDRFSGSRSGNTATLIITSLQAEDEADYYCASIDSGNNLLFGSGTRLTVLG
modifications: E1E8 amino acid sequence
ka ([6]; Table 24): 153500 M⁻¹ s⁻¹ | dissociation rate constant (koff) ([6]; Table 24, dissociation rate): 0.0014 s⁻¹
